{
  "source": "patent US20100249383A1",
  "about": "“Novel Ligand Involved In The Transmigration Of Leukocytes Across the Endothelium and Uses Therefor” (The Regents of The University of California and The Burnham …, priority 2001, published 2010)",
  "binders": {"B1": {"name": "amphoterin (baculovirus expressed rat amphoterin) (ligand, UniProt P63159 2-215, looked up)", "chain": "GKGDPKKPRGKMSSYAFFVQTCREEHKKKHPDASVNFSEFSKKCSERWKTMSAKEKGKFEDMAKADKARYEREMKTYIPPKGETKKKFKDPNAPKRPPSAFFLFCSEYRPKIKGEHPGLSIGDVAKKLGEMWNNTAADDKQPYEKKAAKLKEKYEKDIAAYRAKGKPDAAKKGVVKAEKSKKKKEEEDDEEDEEDEEEEEEEEDEDEEEDDDDE", "modifications": "radioiodinated (125I) in the binding assays", "notes": "the only purified amphoterin in the materials is the baculovirus expressed rat protein; also called recombinant amphoterin"}, "B2": {"name": "human S100A8 (other, UniProt P05109 1-93, looked up)", "chain": "MLTELEKALNSIIDVYHKYSLIKGNFHAVYRDDLKKLLETECPQYIRKKGADVWFKELDINTDGAVNFQEFLILVIKMGVAAHKKSHEESHKE", "notes": "also called MRP8; CP-10"}},
  "key": {"[1]": {"target": "T1, RAGE deglycosylated by PNGase F (bovine, UniProt Q28173 23-416, N-linked oligosaccharides removed by PNGase F (mass decreased by about 4500 daltons))", "T1 construct": "also called deglycosylated RAGE; PNGase F digested RAGE", "T1 sequence (looked up)": "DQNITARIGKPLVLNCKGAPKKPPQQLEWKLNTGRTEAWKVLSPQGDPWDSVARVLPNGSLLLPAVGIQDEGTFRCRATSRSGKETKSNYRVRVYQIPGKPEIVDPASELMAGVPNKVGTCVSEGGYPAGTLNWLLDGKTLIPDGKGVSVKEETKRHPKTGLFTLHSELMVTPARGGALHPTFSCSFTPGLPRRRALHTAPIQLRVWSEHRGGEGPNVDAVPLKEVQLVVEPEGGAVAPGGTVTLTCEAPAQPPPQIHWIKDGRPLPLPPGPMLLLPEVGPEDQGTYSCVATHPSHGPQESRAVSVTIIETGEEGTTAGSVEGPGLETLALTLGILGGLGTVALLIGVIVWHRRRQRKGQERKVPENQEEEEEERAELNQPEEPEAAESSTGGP", "test": "saturation binding of 125I amphoterin to immobilized RAGE deglycosylated by PNGase F", "method": "(§1) Amphoterin was radioiodinated using Na ¹²⁵I and Iodo-Beads Iodinating Reagent (Pierce) to a specific activity of 5×10³ cpm/ng protein. Saturation binding experiments were done by a slight modification of the method of Hori et al (Hori at al., J. Biol. Chem., 270:25752-61 [1995]). Briefly, purified RAGE was immobilized on microliter wells and the wells blocked with 3% BSA. Wells were incubated at 4° C. overnight with increasing concentrations of ¹²⁵I amphoterin in HBSS containing 0.1% BSA in the presence or absence of desialylated carboxylate-enriched (COO⁻) or CONHMe bovine lung glycopeptides, or 20 μg/ml mAbGB3.1 or an unrelated anti-carbohydrate monoclonal antibody, or 100 fold excess of unlabeled amphoterin. Binding was also tested on RAGE deglycosylated by PNGase F under non-denaturing conditions. Wells were washed, bound amphoterin was eluted with 2 M NaCl, and radioactivity was measured using a gamma counter. Non-linear regression analysis was done using the GraphPad Prism program.\nThe binding of a single concentration of labeled ligand was also tested in presence of various concentrations of COO⁻ or neutral glycopeptides. […] Binding was also found to be reduced in presence of mAbGB3.1, while a non-relevant antibody is ineffective (FIG. 24, Panel C)."}, "[2]": {"target": "T2, RAGE from bovine lung (native, purified/immunoprecipitated) (bovine, UniProt Q28173 23-416, carries PNGaseF-sensitive carboxylated N-linked oligosaccharides)", "T2 construct": "Released from mAbGB3.1 beads after immunoprecipitation of bovine lung homogenate; also called bovine lung RAGE; bovine RAGE", "T2 sequence (looked up)": "T1 sequence (looked up)", "test": "saturation binding of 125I amphoterin to immobilized RAGE in presence of soluble COO- glycopeptides", "method": "as §1\n(§2) Specific binding is defined as the total binding minus non-specific binding measured in presence of 100-fold excess of unlabeled amphoterin. The […] binding was 3-4% of total binding. Then, the possibility that amphoterin binding is dependent upon the N-glycans on RAGE was examined."}, "[3]": {"target": "T2, RAGE from bovine lung (native, …)", "test": "saturation binding of 125I amphoterin to RAGE immobilized on microtiter wells, non-linear regression", "method": "as §1, §2"}, "human S100A9": {"target": "T3, human S100A9 (human, UniProt P06702 2-114, limits assumed)", "T3 construct": "also called MRP14; MRP9", "T3 sequence (looked up)": "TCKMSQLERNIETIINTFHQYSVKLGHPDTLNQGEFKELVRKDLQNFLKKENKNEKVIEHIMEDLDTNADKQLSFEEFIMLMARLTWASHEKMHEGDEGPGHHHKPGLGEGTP", "test": "co-purification from human neutrophil cytosol", "description": "Chem., 266:7706 [1991]). […] The proteins remained as heteromeric complexes through purification, were even retained on YM10 and YM30 ultrafiltration membranes, and could not be separated into individual proteins without denaturation. The molecular masses of the purified proteins as determined by SDS gels was 11 kDa and 14 kDa for S100A8 and S100A9 respectively (data not shown). […] Binding to BSA coupled asialo-COO⁻ bovine lung glycopeptides immobilized on microtiter plates was inhibited in presence of 0.3 M asialo-COO⁻ glycopeptides, but much less effectively by the asialo-CONHMe-glycopeptides. In FIG. 19, each point is the mean of two determinations.\nAll steps were carried out at 4° C., unless otherwise indicated. […] Briefly, 100 ml peripheral blood was obtained from healthy volunteers and neutrophils obtained by Ficoll-Hypaque centrifugation as indicated above. The cells were lysed in PBS containing 1 mM DTT, 1% NP40 and protease inhibitors, and subjected to ultracentrifugation at 160,000×g for 30 min. The protein in the supernatant was adjusted to 2 mg/ml with the above buffer, and the solution stirred on ice. Solid ammonium sulfate was slowly added to a final concentration of 75% (w/v) and stirred for 1 h. […] S100A8/A9 proteins eluted at 35-50% acetonitrile, and were >90% pure as determined by SDS gels."}, "[4]": {"target": "the molecule itself", "test": "BS3 chemical cross-linking of neutrophil extracts, immunoblot", "method": "In these experiments, 96-well plates were coated with 250 ng of BSA coupled […] asialo-COO⁻ lung glycopeptides for 4 h at 37° C. and blocked with 3% BSA in PBS overnight. Human neutrophil extracts were sequentially incubated in each of four wells for 30 min/well at 37° C. in leukocyte activation buffer (described above), in presence or absence of 200 μM […] asialo-COO⁻ glycopeptides or asialo-CONHMe-glycopeptides. After incubation, the supernatants from the incubation wells were collected and protein depletion was analyzed by immunoblotting using the respective antibodies. For detection of S100A8/A9 complexes, the proteins in the supernatants were stabilized by chemical cross-linking using bis-sulfosuccinimidyl suberate (BS³) as known in the art (See, Staros, Biochem., 21:3590 [1982]). Briefly, the cross linker was added from a fresh 2 mM stock solution to neutrophil lysates obtained as described above, to a final concentration of 200 μM, and the mixture was incubated at room temperature for 30 min. Reactions were quenched by the addition of 1 M Tris to a final concentration of 10 mM and samples were stored at −80° C., until they were assayed. Cross-linked samples were incubated with 2-mercaptoethanol prior to separation on SDS-PAGE. Since crude lysates were used in the cross-linking, it is conceivable that non-specific cross-linking could occur. […]"}},
  "data": [
    {"binder": "B1", "values": [
      {"measurement": "Kd", "setting": "[1]", "result": "~18.2", "unit": "nM"},
      {"measurement": "Kd", "setting": "[2]", "result": "~12.6", "unit": "nM"},
      {"measurement": "Kd", "setting": "[3]", "result": "~10.7", "unit": "nM"}
    ]},
    {"binder": "B2", "values": [
      {"measurement": "binding result", "setting": "human S100A9", "result": "binds"},
      {"measurement": "binding result", "setting": "[4]", "result": "binds"}
    ]}
  ]
}
